Here are results for 15 sequences from the supplement of paper PMC9170038.

The data set has as its system MS2 coat protein. Put plainly: apparent KD of MS2 coat protein; designed switch direction (-1 OFF switch, 1 ON switch): -1; higher = weaker reporter binding. In short, it runs like this: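 Designed RNA switches were transcribed on Illumina chips by stalled E. coli RNA polymerase and titrated with SNAP-549-labelled MS2 coat protein from 0.7 or 1.5 nM, doubling to 3 µM. Step length ran from 0.8–1.5 h at the lowest concentration to 10–20 min at the highest. The apparent KD is the median over clusters for each design, from curve-fitted normalised cluster fluorescence.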

Setting [1] is: Eterna round: R95, input ligand: FMN 200 uM.
[2] abbreviates: Eterna round: R95, input ligand: microRNA oligo, concentration not stated.
Where [3] appears, read: Eterna round: R95, input ligand: none.
Where [4] appears, read: input ligand: microRNA oligo, concentration not stated.

With “AAAUAACAAGCAAGAUCCUACAUGAGGAUCACCCAUGUGCUCGUCUUGUAAAGUACUAUCACGAAAGUGAUAGUACA [Sensor 3, v1 - 12] (puzzle: Sensor v3, turn-off variant 1)”, the “apparent KD of MS2 coat protein” value under setting [1] came out at 0.0234 µM, the “apparent KD of MS2 coat protein” value under setting [2] was 0.219 µM and the “apparent KD of MS2 coat protein” value under setting [3] was determined as 0.023 µM.
As for “AAAUAACAAGCGAGAUCCUACAUGAGGAUCACCCAUGUGCUCGUCUUAUUAAGUACUAUCACGAAAGUGAUAGUACA [Mat - Sensor v3 - turn-off var 1 - Eli Mod - D66] (puzzle: Sensor v3, turn-off variant 1)”, the “apparent KD of MS2 coat protein” value under setting [1] was found to be 0.0184 µM, the “apparent KD of MS2 coat protein” value under setting [2] was 0.239 µM and the “apparent KD of MS2 coat protein” value under setting [3] was 0.0184 µM.
As to “AAAUAAUAGAUAAAAUAAUACAUGAGGAUCACCCAUGUGGGAUGCUGAGGGUGAUACAAGCUUUUUGCUCGUCUUAU (puzzle: Sensor v3, turn-off variant 1)”, the “apparent KD of MS2 coat protein” value was determined as 0.212 µM under setting [1], 0.0197 µM under setting [2] and 0.245 µM under setting [3].
Turning to “AAAUAGAAAGGAUAUACAGGCAUCCUUACCAGAGCGAGCUCACAUGAGGAUCACCCAUGUAGAAGGUUCAUAGC [EX2 C.17] (Eterna round: R97, puzzle: Exclusion 2)”, the “apparent KD of MS2 coat protein” value (input ligand: FMN 200 uM) was determined as 0.0349 µM and the “apparent KD of MS2 coat protein” value (input ligand: none) amounted to 0.0318 µM.
As for “AAAUAGCAUGAGGAUAUUGGACUGUAUUCAGUACGAGAAGGCAUGACAUGAGGAUCACCCAUGUUUUGUUGGGA [EX6 #6] (Eterna round: R97, puzzle: Exclusion 6)”, the “apparent KD of MS2 coat protein” value (input ligand: FMN 200 uM) was found to be 0.222 µM and the “apparent KD of MS2 coat protein” value (input ligand: none) stood at 0.0675 µM.
With “AAAUAGCGAGGAUAUACUGUAUACGAAAGUAUACGCAUGGCACAUGAGGAUCACCCAUGUAGAAGGCGCUAUAA (Eterna round: R97, puzzle: Exclusion 2)”, the “apparent KD of MS2 coat protein” value runs as follows: (input ligand: FMN 200 uM) 0.0434 µM; (input ligand: none) 0.0223 µM.
As for “AAAUAGCUUGAGGAUAUUGGAUAGGAUUUAGUGCGAGAAGGCAAGACAUGAGGAUCACCCAUGUUGUGUUGGGA [EX6 #13] (Eterna round: R97, puzzle: Exclusion 6)”, the “apparent KD of MS2 coat protein” value (input ligand: FMN 200 uM) is 0.0484 µM and the “apparent KD of MS2 coat protein” value (input ligand: none) stood at 0.0364 µM.
With “AAAUCCGCUGAGGAUAUUAUGACUGAGAGGUCAUGAGAAGGCGGUACAUGAGGAUCACCCAUGUCUAUGGGCAA [Ex-6 Malc#27] (puzzle: Exclusion 6)”, the “apparent KD of MS2 coat protein” value turned out to be 0.377 µM under setting [1], 0.292 µM under setting [2] and 0.553 µM under setting [3].
Consider “AAAUCGGAGGAGGAUAUUGUACAGGAAACGGUGCGAGAAGGUUUCACAUGAGGAUCACCCAUGUCAAAUAGCGA [EX6 #57] (Eterna round: R97, puzzle: Exclusion 6)”, for which the “apparent KD of MS2 coat protein” value (input ligand: FMN 200 uM) was determined as 0.0213 µM and the “apparent KD of MS2 coat protein” value (input ligand: none) was 0.0212 µM.
As to “AAAUCGGUAGAGGAUAUUGUACAGGAAACGGUGCGAGAAGGUUACACAUGAGGAUCACCCAUGUUAAAUAGCGA [EX6 #54] (Eterna round: R97, puzzle: Exclusion 6)”, the “apparent KD of MS2 coat protein” value was found to be 0.0179 µM (input ligand: FMN 200 uM) and 0.0184 µM (input ligand: none).
Turning to “AAAUUCUGAGGAUAUCGAUGUUUGUACAUGAGGAUCACCCAUGUCCUUUUUAUUUUUUCUCGAGAAGGCAGUGUAU [JR_E5_Sub100] (Eterna round: R96, puzzle: Exclusion 5)”, the “apparent KD of MS2 coat protein” value was found to be 0.0481 µM (input ligand: FMN 200 uM), 0.032 µM under setting [4] and 0.0407 µM (input ligand: none).
In the case of “AAAUUCUGAGGAUAUCGAUGUUUGUACAUGAGGAUCACCCAUGUCCUUUUUAUUUUUUCUCGAGAAGGCAGUGUAU [JR_E5_Sub100] (puzzle: Exclusion 5)”, the “apparent KD of MS2 coat protein” value under setting [2] was 0.0342 µM.
Turning to “AAAUUGGUAGAGGAUAUCGUACAGGAAACGAUGCGAGAAGGCUGCACAUGAGGAUCACCCAUGUUUAGUUGCGA [EX6 #42] (Eterna round: R97, puzzle: Exclusion 6)”, the “apparent KD of MS2 coat protein” value was determined as 0.0192 µM (input ligand: FMN 200 uM) and 0.0194 µM (input ligand: none).
The matching figures for “AACAAGCUUUAAAGAUCCCACAUGAGGAUCACCCAUGUGCUCGUCUUAUAACGUACUGUGACGAAAGUCACGGUACG [JL TOV1 3.25] (Eterna round: R97, puzzle: Sensor, turn-off variant 1)”: 0.0277 µM and 0.0374 µM.
For “AACAGUAGAGGAUAUACAUGAGGAUCACCCAUGUGAUAUUUACGUGGCGUACCACGAAGUAGAAGGCUACUGGA [JL Maslow Revisted mod 14] (Eterna round: R96, puzzle: Exclusion 3)”, the “apparent KD of MS2 coat protein” value (input ligand: FMN 200 uM) stood at 0.512 µM, the “apparent KD of MS2 coat protein” value under setting [4] was 0.0325 µM and the “apparent KD of MS2 coat protein” value (input ligand: none) is 0.0348 µM.
